Laboratory results published in PMC9435672, “Structure of angiogenin dimer bound to double-stranded RNA”.

Target: angiogenin H114A (hAng, RNase 5) (Homo sapiens, UniProt P03950 25-147, H138A)
Assay: X-ray crystallography; sequence-independent backbone contacts except Arg24 (C38, C32); RNA does not reach active site; crystals at 277 K; Complex: 20 mM Tris pH 8.0, 120 mM NaCl, on ice 30 min, RNA:protein 1.2:1; crystallization reservoir 200 mM NaCl, 20% PEG 6000, 100 mM HEPES pH 7.0, 277 K
Details: protein: recombinant; tags: none stated (pET-26b(+)); chain copies: 2; self-duplex of 2 identical strands, blunt; designed as stem-loop but duplex in crystal

Chain of angiogenin H114A (hAng, RNase 5) (P03950 25-147 H138A): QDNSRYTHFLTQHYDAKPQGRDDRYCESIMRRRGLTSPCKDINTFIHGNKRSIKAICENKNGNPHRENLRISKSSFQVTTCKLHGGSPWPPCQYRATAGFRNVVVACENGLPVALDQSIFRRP

B1: N19-RNA duplex (dsRNA)
RNA 1: GCCCGCCUGUCACGCGGGC
RNA 2: GCCCGCCUGUCACGCGGGC
binding result: binds
